In the experiment the target is CD3 on T cells (Jurkat T cells; PBMC-T cells). Kind of experiment: flow cytometry on Jurkat T cells; protein purified on CH1 resin. On the technique in general: A flow cytometer gives signals particle by particle.
Chain of CD3 on T cells (Jurkat T cells; PBMC-T cells) (P07766 23-207): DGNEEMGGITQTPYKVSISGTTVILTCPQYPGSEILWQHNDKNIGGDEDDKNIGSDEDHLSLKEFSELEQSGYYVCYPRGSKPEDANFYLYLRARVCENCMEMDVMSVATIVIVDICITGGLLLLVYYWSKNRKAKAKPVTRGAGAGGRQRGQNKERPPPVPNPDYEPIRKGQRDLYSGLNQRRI

B1: IgFD-36(anti-CD3) (antibody, human IgG1, kappa, V domains shown)
VH: EVQLVESGGGLVQPGGSLRLSCAASGFTFNTYAMNWVRQAPGKGLEWVARIRSKYNNYATYYADSVKDRFTISRDDSKNTLYLQMNSLRAEDTAVYYCVRHGNFGNSYVSWFAYWGQGTLVTVSS
VL: QAVVTQEPSLTVSPGGTVTLTCRSSTGAVTTSNYANWVQQKPDHLFRGLIGGTNKRAPGTPARFSGSLLGDKAALTISGAQPEDEAEYYCALWYSNLWVFGGGTKLTVLK
B1 had a Kd of 6.12 nM.

Usually Kd stands for the free concentration of one partner at which half of the binding sites on the other are occupied at equilibrium, for simple one-to-one binding. A higher Kd goes with lower affinity.

The values are drawn from patent publication US20220089722A1.
